Data reported in article PMC9601147.

Tests used:
Assay in all cases: SEC
[1] = target: His6 tagged recombinant IN(R269A/K273A/D256R) (HIV-1 (NL4-3))
[2] = target: His6 tagged recombinant IN(D256R/R262A/R263A) (HIV-1 (NL4-3))
[3] = target: His6 tagged recombinant IN(R269A/K273A/D256N/D270N) (HIV-1 (NL4-3))

Substance: His6 tagged recombinant IN(R269A/K273A/D256R) (enzyme)
- stoichiometry N [1]: 4

Substance: His6 tagged recombinant IN(D256R/R262A/R263A) (enzyme)
- stoichiometry N [2]: 4

Substance: His6 tagged recombinant IN(R269A/K273A/D256N/D270N) (enzyme)
- stoichiometry N [3]: 4
